Measured values taken from publication PMC9302676.
Numbering of substitutions follows the chain as printed. Names may count otherwise.

B1: P450 BM3 (CYP102A1) (Priestia megaterium NBRC 15308 = ATCC 14581) (protein)
chain: MTIKEMPQPKTFGELKNLPLLNTDKPVQALMKIADELGEIFKFEAPGRVTRYLSSQRLIKEACDESRFDKNLSQALKFVRDFAGDGLFTSWTHEKNWKKAHNILLPSFSQQAMKGYHAMMVDIAVQLVQKWERLNADEHIEVPEDMTRLTLDTIGLCGFNYRFNSFYRDQPHPFITSMVRALDEAMNKLQRANPDDPAYDENKRQFQEDIKVMNDLVDKIIADRKASGEQSDDLLTHMLNGKDPETGEPLDDENIRYQIITFLIAGHETTSGLLSFALYFLVKNPHVLQKAAEEAARVLVDPVPSYKQVKQLKYVGMVLNEALRLWPTAPAFSLYAKEDTVLGGEYPLEKGDELMVLIPQLHRDKTIWGDDVEEFRPERFENPSAIPQHAFKPFGNGQRACIGQQFALHEATLVLGMMLKHFDFEDHTNYELDIKETLTLKPEGFVVKAKSKKIPLGGIPSPSTEQSAKKVRKKAENAHNTPLLVLYGSNMGTAEGTARDLADIAMSKGFAPQVATLDSHAGNLPREGAVLIVTASYNGHPPDNAKQFVDWLDQASADEVKGVRYSVFGCGDKNWATTYQKVPAFIDETLAAKGAENIADRGEADASDDFEGTYEEWREHMWSDVAAYFNLDIENSEDNKSTLSLQFVDSAADMPLAKMHGAFSTNVVASKELQQPGSARSTRHLEIELPKEASYQEGDHLGVIPRNYEGIVNRVTARFGLDASQQIRLEAEEEKLAHLPLAKTVSVEELLQYVELQDPVTRTQLRAMAAKTVCPPHKVELEALLEKQAYKEQVLAKRLTMLELLEKYPACEMKFSEFIALLPSIRPRYYSISSSPRVDEKQASITVSVVSGEAWSGYGEYKGIASNYLAELQEGDTITCFISTPQSEFTLPKDPETPLIMVGPGTGVAPFRGFVQARKQLKEQGQSLGEAHLYFGCRSPHEDYLYQEELENAQSEGIITLHTAFSRMPNQPKTYVQHVMEQDGKKLIELLDQGAHFYICGDGSQMAPAVEATLMKSYADVHQVSEADARLWLQQLEEKGRYAKDVWAG
B2: P450 BM3 (CYP102A1) (Priestia megaterium NBRC 15308 = ATCC 14581; T412V/T437A) (protein)
chain: B1 chain with T412V, T437A
B3: P450 BM3 (CYP102A1) (Priestia megaterium NBRC 15308 = ATCC 14581; N320L/T437A) (protein)
chain: B1 chain with N320L, T437A
B4: P450 BM3 (CYP102A1) (Priestia megaterium NBRC 15308 = ATCC 14581; N320L/T412V) (protein)
chain: B1 chain with N320L, T412V
B5: P450 BM3 (CYP102A1) (Priestia megaterium NBRC 15308 = ATCC 14581; N320L/T412V/T437A) (protein)
chain: B1 chain with N320L, T412V, T437A

These proteins were tested on CC1=CC(=O)CC(C)(C)C1 (assay: purified protein). Details: 1 μM enzyme, 1 mM NADPH, KPi 50 mM pH 7.4, 2-50 mM substrate, 30.0 °C.

Row | Protein | Km [mM]
1 | B1 | 10.95 ± 0.80
2 | B2 | 11.39 ± 0.84
3 | B3 | 10.09 ± 0.18
4 | B4 | 17.67 ± 0.46
5 | B5 | 8.29 ± 0.77
